Square brackets hold non-standard residues; d marks the D form. Ends that are not written are not given here. Sta = CC(C)C[C@H](N)[C@@H](O)CC(=O)O; Phg = N[C@H](C(=O)O)c1ccccc1; Tle = CC(C)(C)[C@H](N)C(=O)O; Abu = CC[C@H](N)C(=O)O
What was measured:
[1] = target: β-secretase (enzyme preparation not stated for the inhibitor assays) (human) (UniProt P56817); test: cell-based or functional assay
[2] = target: Swedish mutant P13-P5′ peptide with P1′ aspartic acid replaced with a valine (D→V), P05067
[3] = target: Swedish mutant P13-P5′ peptide with P1′ aspartic acid replaced with a leucine (D→L), P05067
Sequence of Swedish mutant P13-P5′ peptide with P1′ aspartic acid replaced with a leucine (D→L), P05067 (P05067 whole entry, looked up, change not shown, tested part not stated): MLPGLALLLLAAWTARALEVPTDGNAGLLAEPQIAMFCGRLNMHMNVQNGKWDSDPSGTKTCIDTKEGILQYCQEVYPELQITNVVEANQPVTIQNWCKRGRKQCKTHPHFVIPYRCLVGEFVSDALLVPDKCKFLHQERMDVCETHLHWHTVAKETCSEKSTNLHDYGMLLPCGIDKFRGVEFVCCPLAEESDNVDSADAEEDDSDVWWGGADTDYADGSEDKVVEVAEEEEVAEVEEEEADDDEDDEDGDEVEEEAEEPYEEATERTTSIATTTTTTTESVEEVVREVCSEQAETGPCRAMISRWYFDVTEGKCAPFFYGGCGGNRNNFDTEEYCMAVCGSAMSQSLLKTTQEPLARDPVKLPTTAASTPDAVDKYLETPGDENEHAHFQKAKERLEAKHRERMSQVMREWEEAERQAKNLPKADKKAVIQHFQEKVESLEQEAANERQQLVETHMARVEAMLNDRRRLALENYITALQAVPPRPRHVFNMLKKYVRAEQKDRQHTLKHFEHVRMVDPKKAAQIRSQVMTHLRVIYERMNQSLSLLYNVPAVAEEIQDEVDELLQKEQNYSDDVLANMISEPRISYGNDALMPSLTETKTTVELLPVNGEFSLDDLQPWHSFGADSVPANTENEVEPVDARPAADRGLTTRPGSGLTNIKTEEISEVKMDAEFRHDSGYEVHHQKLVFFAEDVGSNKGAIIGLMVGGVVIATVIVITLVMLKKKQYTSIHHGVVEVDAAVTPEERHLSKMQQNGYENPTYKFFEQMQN

Sequence of Swedish mutant P13-P5′ peptide with P1′ aspartic acid replaced with a valine (D→V), P05067 (P05067 whole entry, looked up, change not shown, tested part not stated): as above

Row | IC50 Group, MBP C125 assay (Group II: =1<10 µM) [1] | Binder | further results
1 | < 10 µM | Ac-VG[Sta]VAEF [heptamer peptide 7M (Ac-Val-Gly-Sta-Val-Ala-Glu-Phe)] | –
2 | < 10 µM | Ac-VE[Sta]VAEF [heptamer peptide 7K (Ac-Val-Glu-Sta-Val-Ala-Glu-Phe)] | –
3 | < 10 µM | Ac-VM[Sta][Abu]AEF [heptamer peptide 7C (Ac-Val-Met-Sta-Abu-Ala-Glu-Phe)] | –
4 | – | β-secretase purified from human brain (naturally occurring β-secretase) (protein) ETDEEPEEPGRRGSFVEMVDNLRGKSGQGYYVEMTVGSPPQTLNILVDTGSSNFAVGAAPHPFLHRYYQRQLSSTYRDLRKGVYVPYTQGKWEGELGTDLVSIPHGPNVTVRANIAAITESDKFFINGSNWEGILGLAYAEIARPDDSLEPFFDSLVKQTHVPNLFSLQLCGAGFPLNQSEVLASVGGSMIIGGIDHSLYTGSLWYTPIRREWYYEVIIVRVEINGQDLKMDCKEYNYDKSIVDSGTTNLRLPKKVFEAAVKSIKAASSTEKFPDGFWLGEQLVCWQAGTTPWNIFPVISLYLMGEVTNQSFRITILPQQYLRPVEDVATSQDDCYKFAISQSSTGTVMGAVIMEGFYVVFDRARKRIGFAVSACHVHDEFRTAAVEGPFVTLDMEDCGYNIPQTDESTLMTIAYVMAAICALFMLPLCLMVCQWRCLRCLRQQHDDFADDISLLK | substrate concentration dependence of hydrolysis by brain β-secretase [2]: The valine and leucine substituted Swedish peptides show saturation at a lower concentration than the parent Swedish peptide; substrate concentration dependence of hydrolysis by brain β-secretase [3]: The valine and leucine substituted Swedish peptides show saturation at a lower concentration than the parent Swedish peptide
5 | – | Ac-VV[Sta]VAEF [heptamer peptide 7L (Ac-Val-Val-Sta-Val-Ala-Glu-Phe)] | IC50 Group, MBP C125 assay (Group IV: =20<50 µM) [1]: < 50 µM
6 | < 10 µM | Ac-VM[Sta]AEF [hexameric peptide 7N (Ac-Val-Met-Sta-Ala-Glu-Phe, P1′ deleted)] | –
7 | < 10 µM | Ac-VM[Sta]AAEF [heptamer peptide 7E (Ac-Val-Met-Sta-Ala-Ala-Glu-Phe)] | –
8 | < 10 µM | H-VM[Sta]VEF [hexameric peptide 7R ((NH2)Val-Met-Sta-Val-Glu-Phe, P2′ deleted)] | –
9 | – | Ac-VM[Sta][Tle]AEF [heptamer peptide 7F (Ac-Val-Met-Sta-tLeu-Ala-Glu-Phe)] | IC50 Group, MBP C125 assay (Group IV: =20<50 µM) [1]: < 50 µM
10 | < 10 µM | Ac-VM[Sta][Phg]AEF [heptamer peptide 7D (Ac-Val-Met-Sta-Phg-Ala-Glu-Phe)] | –

— patent US7514408
